Biological target: the molecule itself
Test: SEC; MBP-NR2E3 LBD in solution, compared with Bio-rad Protein Standard

B1: MBP-NR2E3 LBD-His6 fusion protein (MBP–NAAAEF linker–NR2E3(217-410)-His6, C275S) (domain or fragment, human, UniProt Q9Y5X4 217-410, looked up)
chain: LDSIHETSARLLFMAVKWAKNLPVFSSLPFRDQVILLEEAWSELFLLGAIQWSLPLDSSPLLAPPEASAAGGAQGRLTLASMETRVLQETISRFRALAVDPTEFACMKALVLFKPETRGLKDPEHVEALQDQSQVMLSQHSKAHHPSQPVRFGKLLLLLPSLRFITAERIELLFFRKTIGNTPMEKLLCDMFKN
notes: Both tags are non-cleavable; Expressed from pETDuet1; also called MBP-NR2E3 fusion protein; apo NR2E3 LBD; source: E. coli BL21 (DE3), purified (Ni-chelating Hi-Trap, Superdex 200 gel filtration); not shown: MBP (joined by the linker NAAAEF), N-terminal, kept; His6, C-terminal, kept
For B1, the “stoichiometry N” value was 2.

Source: paper PMC3771917, “The Crystal Structure of the Orphan Nuclear Receptor NR2E3/PNR Ligand Binding Domain Reveals a Dimeric Auto-Repressed Conformation” (PLoS ONE, 2013)
